These results are taken from the nanobody polyreactivity screen of Harvey et al. (2022).

The data set in a line: yeast display, Sf9 membrane polyspecificity reagent, FACS + sequencing; frameworks hold sequencing errors. In a few lines: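 A nanobody's polyreactivity label depends on the gate it was sorted from. Yeast display cells were stained with 10% biotinylated, detergent-solubilized Sf9 membrane reagent for 1 hour at 4 °C, enriched on streptavidin microbeads and sorted by FACS. The low and high (top ~1%) gates were set on anti-HA fluorescence for expression and streptavidin fluorescence for reagent binding.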
For the sequence “QVQLVESGGGLVQAGGSLRLSCAASGNTYSYNAMGWYRQAPGKEREFVASISRRGGRTNYADSVKGRFTISRDNAKYTVYLQMNSLKPEDTAVYYCAATTVPLGDYWGQGTQVTVST”, the “polyreactivity (PSR sort gate)” value is “high polyreactivity”.
As for “QVQLVESGGGLVQAGGSLRLSCAASGNTYTSYAMGWYRQAPGKDRELVAAISASGSSTYYADSVKGRFTISRDNAKNTVYLQMNSLKPEDTAVFYCARQWYWRPGYYMGQGYEYWGQGTQVTVSS”, the entry is “low polyreactivity”; as for “QVQLVESGGGLVQAGGSLRLSCAASGPIFATNAMGWYRQAPGKERELVASISSGGGSTYYADSVKGRFTISRDNAKNTVYLQMNSLKPEDTAVYYCAADYYTGYVWEDYYWGQGTQVTVSS”, “low polyreactivity”; as for “QVQLVESGGGLVQAGGSLRLSCAASGPIFPAYAMGWYRQAPGKERELVASIRRGGITYADSVKGRFTISRDNAKNTVYLQMNSLKPEDTAVYYCNADYRGWGYHMDYWGQGTQVTVSS”, “low polyreactivity”.
Regarding “QVQLVESGGGLVQAGGSLRLSCAASGPIIGQYAMVWYIQAPGKERELVAAITYSGGRTYYADSVKGRFTISRDNAKNTVYLQMNSLKPEDTAVYYCAARGRASFERRGGYYYWGQVTQVTVSS”, the “polyreactivity (PSR sort gate)” value is listed as “high polyreactivity”.
The result for “QVQLVESGGGLVQAGGSLRLSCAASGPTFDYNAMGCYRPAPGKERELVAAIRFGGGSTYYADSVKGRFTISRDNAKNTVYFQINSLKPEDTAVYYCNASPLWIGWVIVPVGSSHYDYWGQGTQVTVSS” reads “low polyreactivity”; that for “QVQLVESGGGLVQAGGSLRLSCAASGPTFKRYAMGWYRQAPGKERELVAAITGTGAITYYADSVKGRFTISRDNAKNTVYLQMNSLKPEDTAVYYCAALGYYRYKYQASSNGFDYWGQGTQVTVSS”, “high polyreactivity”.
Turning to “QVQLVESGGGLVQAGGSLRLSCAASGPTFLVNAMGWYRQAPGKERELVATINWNAGSTYYADSVKGRFTISRDYAKNTVYLQMNSLKPEDTAVYYCAAPYEQAPTTDVSSLIPLHDYWGQGTQVTVSS”, the “polyreactivity (PSR sort gate)” value is “low polyreactivity”.
Consider “QVQLVESGGGLVQAGGSLRLSCAASGPTFRRYGMGWYRQAPGKERELVDAITTRGGSTYYADSVKGRFTISRDNAKNTVYLQMNSLKPEDTAVYYCAAPRKYFYSSATGNYWGQGTQVTVSS”, for which the “polyreactivity (PSR sort gate)” value is reported as “high polyreactivity”.
On to “QVQLVESGGGLVQAGGSLRLSCAASGPTFYYYAMGWYRQEPGKERELVAAIRVRGGSTYYADSVKGRFTISRDNAKNTVYLQMNSLKPEDTAVYYCAADHTFYGVHKYDYWGQGTQVTVSS”, for which the “polyreactivity (PSR sort gate)” value is given as “low polyreactivity”.
With “QVQLVESGGGLVQAGGSLRLSCAASGQIFHSYAMGWSRQAPGKERELVAAISRGGGSTYYADSVKGRFTISRDNAKNTVYLQMNSLKPEDTAVYYCARENLTRYDYWGQGTQVTVSS”, the “polyreactivity (PSR sort gate)” value is “high polyreactivity”.
As for “QVQLVESGGGLVQAGGSLRLSCAASGQIFYRYAMGWDRQAPGKERELVAAISSGGSTYYADSVKGRFTISRDNAKNTVYLQMNSLKPEDTAVYYCNTGYWYVSLGSYDYYGEYDYWGQGTQVTVSS”, the entry is “high polyreactivity”.
On to “QVQLVESGGGLVQAGGSLRLSCAASGRAFKRYAMGWYRQAPGKERELVAAITRSGGSTYYADSVTGRFTISRDKAKNTVYLQMNSLKPEDTAVYYCATRSYNNELEYWGQGTQVTVSS”, for which the “polyreactivity (PSR sort gate)” value is listed as “high polyreactivity”.
In the case of “QVQLVESGGGLVQAGGSLRLSCAASGRICTRNAMGWYRQAPGKERELVAAISWRGGSTYYADSVKGRFTISRDNAKNTVYLQMNSLKPEDTAVYYCNAYFLSQYQSAYRDDYWGQGTQVTVSS”, the “polyreactivity (PSR sort gate)” value is “high polyreactivity”.
Take “QVQLVESGGGLVQAGGSLRLSCAASGRIFAANTMGWYRQAPGKEREFVAVIRGRGGSTYYADSVKGRFTISRDNAKNTVYLQMNSLKPEDTAVYYCAAYYKPYRERLYGYWGQGTQVTVSS”: the “polyreactivity (PSR sort gate)” value is given as “high polyreactivity”.
As for “QVQLVESGGGLVQAGGSLRLSCAASGRIFAAYAMGWYRQAPGKERELVAAITRRGSTYYADSVKGRFTISRDNDKKTVYFQMNSLKPEDTAVYYCNKVPLFQYSTAWYDYWGQGTQVTVSS”, the entry is “high polyreactivity”; as for “QVQLVESGGGLVQAGGSLRLSCAASGRIFAAYAMGWYRQAPGKERELVAAITWDGDSTYYADSVKGRFTISRDNAKNTVYLQMNSLKPEDTAVYYCAAYWSTWYDWGQGTQVTVSS”, “high polyreactivity”.
Consider “QVQLVESGGGLVQAGGSLRLSCAASGRIFAAYAMGWYRQAPGKERELVAAITWRGGSTYYADSVKGRFTISRDNAKNTVYLQMNSLKPEDTAVYYCNARVYYYPGYDYWGQGTQVTVSS”, for which the “polyreactivity (PSR sort gate)” value is listed as “low polyreactivity”.
The result for “QVQLVESGGGLVQAGGSLRLSCAASGRIFADYAMGWYRQAPGKETELVAAISSTSSTNYADSVKGRFTISRDNAKNTVYLQMNSLKPEDTAVYYCAKRIGHLPFRPYDYWGQGTQVTVSS” reads “low polyreactivity”.
The result for “QVQLVESGGGLVQAGGSLRLSCAASGRIFAEYAMGWYIQATGKERELVASISRRGGSTYYADSVKGRFTISRDNAKNTVYLQMNSLKPEDTAVYYCAAVWAYYHTRYSTWGYDYWGQGTQVTVSS” reads “high polyreactivity”.
Consider “QVQLVESGGGLVQAGGSLRLSCAASGRIFAFNAMGGYRQAPGKERELVAAITGRGGRTYYADSVKGRFTISRDHAKNTVYLQMNSLKPEDTAVYYCAAQRYINYDYWGQGTQVTVSS”, for which the “polyreactivity (PSR sort gate)” value is reported as “high polyreactivity”.
The result for “QVQLVESGGGLVQAGGSLRLSCAASGRIFAFYAMGWYRQAPGKERELVAAISWDGGSSYYADSVKGRFTISRDNAKNTVYLQMNSLKPEDTAVYDCNKDLYYAYDYWGQGTQVTVSS” reads “low polyreactivity”; that for “QVQLVESGGGLVQAGGSLRLSCAASGRIFAGYAMGWYRQAPGTERELVATITRGGSTNYADSVKRPFTISRDNAKNTVYLQMNSLKPEDTAVYYCNADIRRHGGYAHEYWGQGTKVTVSS”, “low polyreactivity”; that for “QVQLVESGGGLVQAGGSLRLSCAASGRIFAGYTMGWYRPAPGKERELVAAIRSSGRTHYADSVKGRFTISRDNAKNTVYLQMYSLKPEDTAVYYCAARWTYTFAYRFDYWGQGTQVTVSS”, “high polyreactivity”.
“QVQLVESGGGLVQAGGSLRLSCAASGRIFAHFAMGGYRQAPGKEWELVAAIDSGGSTDYADSVKGRFTISRDNAKNTVYLQMNSLKPEDTAVYYCNAERAYLWWYNFDYWGQGTQVTVSS”: the “polyreactivity (PSR sort gate)” value was “low polyreactivity”.
The result for “QVQLVESGGGLVQAGGSLRLSCAASGRIFAKNAMGWYRQAPGKERELVAAISGSGGSTYYADSVKGRFTISRDNAKNTVYLQMNSLKPDDTAVYYCAATRGPNYRNGYWGQGTQVTVSS” reads “high polyreactivity”; that for “QVQLVESGGGLVQAGGSLRLSCAASGRIFAKNTMGWYRQAPGKERELVAAITWSSGNTDYADSVKGRFTISRDNAKNTVYLQMNSLKPEDTAVYYCAAYPRWTYWGYVERYYWGQGTQVTVSS”, “high polyreactivity”.
“QVQLVESGGGLVQAGGSLRLSCAASGRIFANYAMGWYRQAPGKERELVAAISRSGGSTSYADSVKGRFTISRDNAKNTVYLQMNSLKPEDTAVYYCAATRSRYQPVKYGYWGQGTQVTVSS”: the “polyreactivity (PSR sort gate)” value is recorded as “high polyreactivity”.
For “QVQLVESGGGLVQAGGSLRLSCAASGRIFAPNAMGWYRQAPGKEREFVASIRWNGGSTYYADSVKGRFTISRDNAKNTVYLQMNSLKPADTAVYYCAARGWGYRRNYVYAWYDYWGQGTQVTVSS”, the “polyreactivity (PSR sort gate)” value was “high polyreactivity”.
Take “QVQLVESGGGLVQAGGSLRLSCAASGRIFAPNAMGWYRQAPGKERELVAAISFSGDSTSYADSVKGRFTISRDNAKNTVYLQMNSLKPEDTAVYYCATDRRVQYPLGPSYDYDYWGQGTQVTVSS”: the “polyreactivity (PSR sort gate)” value was “low polyreactivity”.
For “QVQLVESGGGLVQAGGSLRLSCAASGRIFAPYAMGWYRQAPGKERELVAGISIGGSTYYADSVKGRFTISRDNAKNTVYLQMNSLKPEDTAVYYCAALYNFWYSTYYYWGQGTQVTVSS”, the “polyreactivity (PSR sort gate)” value was “high polyreactivity”.
As for “QVQLVESGGGLVQAGGSLRLSCAASGRIFARNAMGWSRQAPGKERELVAAISGGGNTYADSVKGRFTISRDNAKNTVYLQMNSLKPEDTAVYYCARVVHFRGVRYDYWGQGTQVTVSS”, the entry is “high polyreactivity”.
For the sequence “QVQLVESGGGLVQAGGSLRLSCAASGRIFARNAMGWSRQAPGKERELVAASSSGGGSTYYADSVKGRFTISRDNAKNTVYLRMISLKPEDTAVYYCAARTRITYDWGQGTQVTVSS”, the “polyreactivity (PSR sort gate)” value was “low polyreactivity”.
On to “QVQLVESGGGLVQAGGSLRLSCAASGRIFARNAMGWYRQAPGKERELVATIRVGGGSTYYADSVKGRFTISRDNAKNTVYLQMNSLKPEDTAVYSCAVRQLYSYPGDRRGYYWGQGTQVTVSS”, for which the “polyreactivity (PSR sort gate)” value is “low polyreactivity”.
As for “QVQLVESGGGLVQAGGSLRLSCAASGRIFARYAMGWYRQAPGKERELVAAITVSGDNTYYADSVKGRFTISRDNAKNTVYLQMNSLKPEDTAVYYCNAYFLVHYRRLRPYDYWGQGTQVTVSS”, the entry is “low polyreactivity”.
Regarding “QVQLVESGGGLVQAGGSLRLSCAASGRIFASNAMGWYRQAPGKERELVAAIDQGGGSTYYADSVKGRFTISRDNAKNTVYLQMNSLKPEDTAVYDCAADYISAYPRLYNYWGQGTQVTVSS”, the “polyreactivity (PSR sort gate)” value was “low polyreactivity”.
Regarding “QVQLVESGGGLVQAGGSLRLSCAASGRIFASNDMGWYRQAPGKEREWVAAITSGGSTYYADSVKGRFTISRDNAKNTVYLQMNSLKPEDTAVYYCAAGSAYYSQRYFAYGYYSWGQGTQVTVSS”, the “polyreactivity (PSR sort gate)” value was “low polyreactivity”.
The result for “QVQLVESGGGLVQAGGSLRLSCAASGRIFASYAMGWYRQAPGKERELVAAISGSGASTYYADSVKGRFTISRDNAKNTVYLQMNSLKPEDTAVYYCAAKATSEGDEYWGQGTQVTVSS” reads “high polyreactivity”.
The result for “QVQLVESGGGLVQAGGSLRLSCAASGRIFASYAMGWYRQAPGKERELVAAISWGDDSTYYADSVKGRFTISRDNAKNTVYLQMNSLKPEDTAVYYCAAAFWFGPYRLYYWGQGTQVTVSS” reads “high polyreactivity”.
As for “QVQLVESGGGLVQAGGSLRLSCAASGRIFATYVMGGYRQAPGKERELVATISSGGSTNYADSVKGRFTISRDNAKNTVYLQMNSLKPEDTAVYYCAVVDGNYWYVKGDYWGQGTQVTVSS”, the entry is “low polyreactivity”.
